Measured values taken from US20250009876A1 (H LUNDBECK A S, published 2025).
Like-named read-outs stand apart in the source and are kept apart here. Values belong to the binder of their own block, whether it stands above or below them.

What was measured:
[1] = molecular target: T1, PACAP38 (Pituitary Adenylate Cyclase-Activating Polypeptide, 38 amino acids) (human, not fully specified; the C-terminal lysine is amidated); test: cell-based or functional assay
T1 peptide: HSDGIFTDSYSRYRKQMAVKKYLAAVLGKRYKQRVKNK

[2] = molecular target: T2, PACAP27 (Pituitary Adenylate Cyclase-Activating Polypeptide, 27 amino acids) (human, the C-terminal leucine is amidated); test: cell-based or functional assay
T2 peptide: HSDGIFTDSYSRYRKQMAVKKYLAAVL

[3] = molecular target: T1, PACAP38 (Pituitary Adenylate …); test: cell-based or functional assay
[4] = molecular target: T1, PACAP38 (Pituitary Adenylate …); test: cell-based or functional assay
[5] = molecular target: T1, PACAP38 (Pituitary Adenylate …); test: SPR (ProteOn XPR36), antibody amine-coupled, peptide analyte, 1:1 Langmuir fit
Procedure: (§1) Binding affinities of monoclonal antibodies for human PACAP were estimated using SPR on the PROTEON™ XPR36 (Bio-Rad, Hercules, CA). Antibody was immobilized to the surface of general amine coupling (“GLC″ or “GLM”) Chips (Bio-Rad, Hercules, CA). […] Antigen (ranging from 1.23 nM to 100 nM) was typically run sequentially with association times of 2-4 minutes and dissociation times of 3-120 minutes grouped with the PROTEON™ Manager Software (v3.1.0.6 (Bio-Rad, Hercules, CA)) and fitted using a 1:1 Langmuir binding model. Surfaces were regenerated between analyte queries using 0.85% Phosphoric Acid, 0.5% SDS, and 0.1N NaOH.

[6] = molecular target: T2, PACAP27 (Pituitary Adenylate …); test: as above
Procedure: as §1

[7] = molecular target: T3, VIP (Vasoactive Intestinal Peptide) (human); test: as above
T3 construct: also called human VIP
T3 peptide: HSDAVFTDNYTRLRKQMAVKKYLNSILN

[8] = molecular target: T1, PACAP38 (Pituitary Adenylate …); test: cell surface binding assay (DELFIA TRF): antibody pre-incubated with PACAP38, added to PAC1-R-expressing PC-12 cells, detected with Eu anti-human IgG; the antibody is held on the cells through cell-bound PACAP38
Procedure: Cells were initially seeded at 1×10⁵ cells/well in a solution of complete RPMI (“cRPMI”: RPMI medium supplemented with 10% sterile heat-inactivated FBS and 1% sterile antibiotic/antimycotic)+10% FBS, and the plates were allowed to incubate overnight at 37° C. On the day of the binding assay, antibodies at an initial concentration of 15 μg/ml were diluted at a 1:3 ratio in DELFIA® binding buffer (50 mM Tris, 150 mM NaCl, 0.1% azide, 2% horse serum) (Perkin-Elmer, Waltham, MA) to a total volume of 60 μL in a separate 96 well round bottom plate. PACAP38 was prepared for the binding assay by diluting it in DELFIA® binding buffer to a concentration of 200 nM, and then 60 μl of the diluted PACAP38 was added to each of the antibody-containing wells to form antibody: antigen complexes. Following addition of PACAP38, the antibody: antigen complexes were incubated at room temperature on a shaker for 1 hour. […]
DELFIA® Europium labeled anti-human IgG detection reagent (Cat #1244-330, Perkin-Elmer, Waltham, MA) was diluted to a concentration of 300 ng/ml in DELFIA® Binding Buffer. […] The plates were then read (TRF, excitation 330 nm, emission 620 nm) on a SPECTRAMAX® (Molecular Devices, Sunnyvale, CA) plate reader.

[9] = molecular target: T1, PACAP38 (Pituitary Adenylate …); test: SPR (ProteOn XPR36), antibody amine-coupled, peptide analyte, 1:1 Langmuir fit
Procedure: (§2) Binding affinities of monoclonal antibodies for human PACAP were estimated using SPR on the PROTEON™ XPR36 (Bio-Rad, Hercules, CA). Antibody was immobilized to the surface of general amine coupling (“GLC” or “GLM”) Chips (Bio-Rad, Hercules, CA). […] Antigen (ranging from 1.23 nM to 100 nM) was typically run sequentially with association times of 2-4 minutes and dissociation times of 3-120 minutes grouped with the PROTEON™ Manager Software (v3.1.0.6 (Bio-Rad, Hercules, CA)) and fitted using a 1:1 Langmuir binding model. Surfaces were regenerated between analyte queries using 0.85% Phosphoric Acid.

[10] = molecular target: T2, PACAP27 (Pituitary Adenylate …); test: as above
Procedure: as §2

[11] = molecular target: T1, PACAP38 (Pituitary Adenylate …); test: cell surface binding assay (DELFIA TRF): antibody pre-incubated with PACAP38, added to PAC1-R-expressing PC-12 cells, detected with Eu anti-human IgG; the antibody is held on the cells through cell-bound PACAP38
[12] = molecular target: T2, PACAP27 (Pituitary Adenylate …); test: competition HTRF binding assay: unlabeled PACAP27 at 10x against biotinylated PACAP38 (35 nM)
Procedure: In parallel, 10 μl of an antibody dilution series (highest final concentration of 100 nM) were incubated with 10 μl of N-terminal or C-terminal biotinylated PACAP38 (35 nM final) alone, or in combination with either PACAP27 (350 nM final) or VIP (350 nM final), i.e., 10× PACAP27 or 10× VIP, respectively, in a HTRF plate. 20 μl of Eu³⁺ cryptate labeled anti-hu Fc donor and 20 μl of d2-labeled streptavidin acceptor were added to each well and incubated for 1 hour at room temperature. Fluorescence was measured at 620 and 665 nm with a delay of 300 usec.

[13] = molecular target: T4, PAC1-R on PAC1-R-expressing PC-12 cells (UniProt P32215 20-523); test: cell surface binding assay (DELFIA TRF): antibody pre-incubated with PACAP38, added to PAC1-R-expressing PC-12 cells, detected with Eu anti-human IgG
T4 construct: whole, on cells; also called PAC1 receptor
T4 sequence (looked up): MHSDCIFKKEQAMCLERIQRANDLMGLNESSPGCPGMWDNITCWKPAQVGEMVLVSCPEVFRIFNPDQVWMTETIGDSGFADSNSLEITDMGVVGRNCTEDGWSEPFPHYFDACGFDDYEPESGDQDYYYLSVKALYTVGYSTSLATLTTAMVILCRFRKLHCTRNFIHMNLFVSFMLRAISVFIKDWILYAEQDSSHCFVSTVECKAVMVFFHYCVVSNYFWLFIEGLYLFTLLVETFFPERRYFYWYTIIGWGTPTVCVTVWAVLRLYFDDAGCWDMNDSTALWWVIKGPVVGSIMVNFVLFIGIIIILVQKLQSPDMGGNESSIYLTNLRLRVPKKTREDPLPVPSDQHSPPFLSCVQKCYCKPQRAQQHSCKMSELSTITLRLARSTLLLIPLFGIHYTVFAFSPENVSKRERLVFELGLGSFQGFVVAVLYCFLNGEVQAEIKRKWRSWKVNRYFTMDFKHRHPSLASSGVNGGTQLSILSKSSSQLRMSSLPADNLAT
Procedure: Cells were initially seeded at 1×10⁵ cells/well in a solution of complete RPMI (“cRPMI”: RPMI medium supplemented with 10% sterile heat-inactivated FBS and 1% sterile antibiotic/antimycotic)+10% FBS, and the plates were allowed to incubate overnight at 37° C. On the day of the binding assay, antibodies at an initial concentration of 15 μg/ml were diluted at a 1:3 ratio in DELFIA® binding buffer (50 mM Tris, 150 mM NaCl, 0.1% azide, 2% horse serum) (Perkin-Elmer, Waltham, MA) to a total volume of 60 μL in a separate 96 well round bottom plate. PACAP38 was prepared for the binding assay by diluting it in DELFIA® binding buffer to a concentration of 200 nM, and then 60 μl of the diluted PACAP38 was added to each of the antibody-containing wells to form antibody: antigen complexes. Following addition of PACAP38, the antibody: antigen complexes were incubated at room temperature on a shaker for 1 hour. Separately, the PC-12 cells were prepared for addition of antibody: antigen complexes by washing the cells two times with DELFIA® wash buffer (50 mM Tris, 150 mM NaCl, 0.1% Azide) (Perkin-Elmer, Waltham, MA). After washing the cells two times and following the 1 hour room temperature incubation of the antibody: antigen complexes, 50 μl of the antibody: antigen complex was added to each well containing cells. The mixtures of cells and antibody: antigen complexes were then incubated for 30 minutes at room temperature. Following this 30 minute incubation, each mixture was washed two times with DELFIA® wash buffer (Perkin-Elmer, Waltham, MA).
DELFIA® Europium labeled anti-human IgG detection reagent (Cat #1244-330, Perkin-Elmer, Waltham, MA) was diluted to a concentration of 300 ng/ml in DELFIA® Binding Buffer. Following dilution, 50 μl of the anti-human IgG detection reagent was added to each well containing cells, and a 30 minute incubation at room temperature followed this addition of IgG detection reagent. After completion of the 30 minute room temperature incubation, the cells were then washed two times with DELFIA® wash buffer. Next, 50 μl of DELFIA® Enhancement Solution (Cat #1244-105, Perkin-Elmer, Waltham, MA) was added to each well containing cells for a final 15 minute room temperature incubation with shaking. The plates were then read (TRF, excitation 330 nm, emission 620 nm) on a SPECTRAMAX® (Molecular Devices, Sunnyvale, CA) plate reader.

- Inhibition of 0.1 nM PACAP38-induced PAC1-R mediated cAMP increase IC50 (pM) [1]: 28.5 pM
- Inhibition of 1 nM PACAP27-induced PAC1-R mediated cAMP increase IC50 (pM) [2]: 274 pM
- Inhibition of 5 nM PACAP38-induced human VPAC1-R mediated cAMP increase IC50 (pM) [3]: 2480 pM
- Inhibition of 1 nM PACAP38-induced human VPAC2-R mediated cAMP increase IC50 (pM) [4]: 1060 pM
- Kd [5]: ≤ 0.0171 nM
- koff [5]: ≤ 1e-05 s⁻¹
- kon [5]: 586000 M⁻¹ s⁻¹
- Kd [6]: ≤ 0.0233 nM
- koff [6]: ≤ 1e-05 s⁻¹
- kon [6]: 430000 M⁻¹ s⁻¹
- Kd [7]: 225 nM
- koff [7]: 0.011 s⁻¹
- kon [7]: 48800 M⁻¹ s⁻¹
- EC50 (read off the curve) [8]: ~7 nM
B1: Ab21.H2 (antibody, human IgG1, kappa, N297A)
heavy: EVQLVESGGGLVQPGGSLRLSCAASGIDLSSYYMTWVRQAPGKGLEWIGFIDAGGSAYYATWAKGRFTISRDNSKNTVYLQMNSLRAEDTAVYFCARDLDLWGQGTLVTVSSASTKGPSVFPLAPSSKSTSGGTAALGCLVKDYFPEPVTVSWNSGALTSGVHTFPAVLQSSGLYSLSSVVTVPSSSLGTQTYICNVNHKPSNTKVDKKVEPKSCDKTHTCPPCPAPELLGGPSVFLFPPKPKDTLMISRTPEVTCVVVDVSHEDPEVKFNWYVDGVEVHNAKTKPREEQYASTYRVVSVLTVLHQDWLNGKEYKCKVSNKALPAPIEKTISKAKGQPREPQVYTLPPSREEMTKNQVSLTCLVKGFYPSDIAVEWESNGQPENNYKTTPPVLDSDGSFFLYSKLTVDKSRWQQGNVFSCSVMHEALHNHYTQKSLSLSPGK
light: AVLTQSPSTLSASVGDRVTITCKSSESVYGDYLAWFQQKPGKAPKQLIYDASTLASGVPSRFSGSGSGTEFTLTISSLQPDDFATYYCAGGYVSAGVAFGGGTKVEIKRTVAAPSVFIFPPSDEQLKSGTASVVCLLNNFYPREAKVQWKVDNALQSGNSQESVTEQDSKDSTYSLSSTLTLSKADYEKHKVYACEVTHQGLSSPVTKSFNRGEC
notes: Full-length humanized variant of Ab21

- Kd [9]: 0.021 nM
- koff [9]: 1e-05 s⁻¹
- Kd [10]: 0.013 nM
- koff [10]: 1e-05 s⁻¹
- EC50 (read off the curve) [11]: ~2 nM
B2: Ab1.H (antibody, V domains shown)
VH: EVQLVESGGGLVQPGGSLRLSCAASGFTVSSAVMNWVRQAPGKGLEWIGSIVASGTTYYASSANGRFTISRDNSKNTLYLQMNSLRAEDTAVYYCARGGGEFFIWGQGTLVTVSS
VL: DIQMTQSPSTLSASVGDRVTITCQSSESVYSNYLSWYQQKPGKAPKFLIYQASNLASGVPSRFSGSGSGTEFTLTISSLQPDDFATYYCAGGYSENIVGFGGGTKVEIKR

- binding result [12]: no binding
- binding result [13]: no binding (tested: about 70 nM)
B3: Ab22 (antibody, human IgG1, kappa, N297A, V domains shown)
VH: QEQLVESGGGLVQPEGSLTLTCTASGFDFSSNAMCWVRQAPGKGLEWIGSIYNADGKNYYAIWAKGRFTISRTSSTTVTLQMTSLTAADTATYFCARDFDLWGQGTLVTVSS
VL: AAVLTQTPSPVSAAVGGTVTINCQSSQSVYDNDWLAWFQQKPGQPPKLLIYLTSTLASGVPSRFSGSGSGTQFTLTISGVQCDDAATYYCLGGYDEDGDTHVFGGGTEVVVKR
notes: Full-length anti-PACAP antibody; rabbit/human chimeric
